Data reported in US20240200091A1, “USE OF PROTOPORPHYRINOGEN OXIDASE” (BEIJING DABEINONG BIOTECHNOLOGY CO., LTD., priority 2021, published 2024).

Assays:
Assay type in all cases: in vivo
[1] = system: Arabidopsis thaliana T1 plants; experiment: oxyfluorfen tolerance of transgenic Arabidopsis thaliana T1 plants (spray, grade of pesticide damage); conditions: 7 DAT, number of plants of 24 per genotype, grades
Method in brief: (§1)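 Graded 0–3 by injured-to-total leaf area 7 days after spraying, with grades 0–1 rated highly resistant. Plants (24 per genotype, 18 days old) received water or 1× and 4× field rates (sulfentrazone 1× and 2×, 450/900 g ai/ha) of each herbicide.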

[2] = system: Arabidopsis thaliana T1 plants; experiment: saflufenacil tolerance of transgenic Arabidopsis thaliana T1 plants (spray, grade of pesticide damage); conditions: 7 DAT, number of plants of 24 per genotype, grades
Method in brief: as §1

[3] = system: Arabidopsis thaliana T1 plants; experiment: flumioxazin tolerance of transgenic Arabidopsis thaliana T1 plants (spray, grade of pesticide damage); conditions: 7 DAT, number of plants of 24 per genotype, grades
Method in brief: as §1

[4] = system: Arabidopsis thaliana T1 plants; experiment: sulfentrazone tolerance of transgenic Arabidopsis thaliana T1 plants (spray, grade of pesticide damage); conditions: 7 DAT, number of plants of 24 per genotype, grades
Method in brief: as §1

[5] = system: transgenic soybean plants; experiment: saflufenacil tolerance of transgenic soybean plants (spray, grade of pesticide damage); conditions: for The grade of pesticide damage/plant: grade 0 / The grade of pesticide damage/plant: grade 1 / The grade of pesticide damage/plant: grade 2 / The grade of pesticide damage/plant: grade 3: 7 DAT, number of plants of 16 per genotype, grades
[6] = system: transgenic soybean plants; experiment: oxyfluorfen tolerance of transgenic soybean plants (spray, grade of pesticide damage); conditions: for The grade of pesticide damage/plant: grade 0 / The grade of pesticide damage/plant: grade 1 / The grade of pesticide damage/plant: grade 2 / The grade of pesticide damage/plant: grade 3: 7 DAT, number of plants of 16 per genotype, grades; for tolerance to oxyfluorfen: soybean
[7] = system: transgenic soybean plants; experiment: flumioxazin tolerance of transgenic soybean plants (spray, grade of pesticide damage); conditions: for The grade of pesticide damage/plant: grade 0 / The grade of pesticide damage/plant: grade 1 / The grade of pesticide damage/plant: grade 2 / The grade of pesticide damage/plant: grade 3: 7 DAT, number of plants of 16 per genotype, grades

B1: PPO14A: nucleotide sequence encoding microbial protoporphyrinogen oxidase PPO14 (SEQ ID NO:14), Arabidopsis thaliana/soybean common codon usage bias (nucleic acid)
DNA: ATGTCTAACAAGGCCTTGCTGCTCTATAGTACAAGAGAAGGTCAAACTAAAAAGATTCTTCAGTACATAGACAAAGAGCTTCATGATTACCAATGTGATTATGTCGATCTTCACACAATGCCTATAGAGATTGATTTCTCTGGTTATGATAAAGTTTTGGTAGGGGCGTCCATCCGGTATGGACATTTAAACAAAAAACTTTACAGATTCATCGAGAGGTACAAAGCAGAGTTGAAGGATAATAATGCTGCTTTCTTCTGCGTCAATCTAACCGCAAGGAAAGAACAACAAGGAAAAGATACTCCTGAAGGATCAGCTTATATTCAGACTTTTCTCAAGAAGTCTCCATGGCAGCCAGCATTGATAGGTGTTTTTGCTGGAGCTTTACGTTACCCGAAGTATAGATGGTTTGACAAGATGATGATTCGACTAATCATGACTATGACGGGCGGTGAAACCGACACATCAAAGGAAGTGGAGTATACAAATTGGAAGAAAGTGAGCCTCTTTGTTGAAAACTGGCAAAAGCAGTGA
modifications: The nucleotide sequence of PPO14A
With B1 the “The grade of pesticide damage/plant: grade 0” value ([1]; oxyfluorfen 180 g ai/ha (1×)) was 24 plant, the “The grade of pesticide damage/plant: grade 1” value ([1]; oxyfluorfen 180 g ai/ha (1×)) was 0 plant and the “The grade of pesticide damage/plant: grade 2” value ([1]; oxyfluorfen 180 g ai/ha (1×)) was 0 plant. The “The grade of pesticide damage/plant: grade 3” value ([1]; oxyfluorfen 180 g ai/ha (1×)) was 0 plant, the “The grade of pesticide damage/plant: grade 0” value ([1]; oxyfluorfen 720 g ai/ha (4×)) was 20 plant and the “The grade of pesticide damage/plant: grade 1” value ([1]; oxyfluorfen 720 g ai/ha (4×)) was 4 plant. The “The grade of pesticide damage/plant: grade 2” value ([1]; oxyfluorfen 720 g ai/ha (4×)) was 0 plant, the “The grade of pesticide damage/plant: grade 3” value ([1]; oxyfluorfen 720 g ai/ha (4×)) was 0 plant and the “The grade of pesticide damage/plant: grade 0” value ([2]; saflufenacil 25 g ai/ha (1×)) was 24 plant. For the same molecule, the “The grade of pesticide damage/plant: grade 1” value ([2]; saflufenacil 25 g ai/ha (1×)) was 0 plant, the “The grade of pesticide damage/plant: grade 2” value ([2]; saflufenacil 25 g ai/ha (1×)) was 0 plant and the “The grade of pesticide damage/plant: grade 3” value ([2]; saflufenacil 25 g ai/ha (1×)) was 0 plant. For the same molecule, the “The grade of pesticide damage/plant: grade 0” value ([2]; saflufenacil 100 g ai/ha (4×)) was 0 plant, the “The grade of pesticide damage/plant: grade 1” value ([2]; saflufenacil 100 g ai/ha (4×)) was 24 plant and the “The grade of pesticide damage/plant: grade 2” value ([2]; saflufenacil 100 g ai/ha (4×)) was 0 plant. The “The grade of pesticide damage/plant: grade 3” value ([2]; saflufenacil 100 g ai/ha (4×)) was 0 plant, the “The grade of pesticide damage/plant: grade 0” value ([3]; flumioxazin 60 g ai/ha (1×)) was 24 plant and the “The grade of pesticide damage/plant: grade 1” value ([3]; flumioxazin 60 g ai/ha (1×)) was 0 plant. For the same molecule, the “The grade of pesticide damage/plant: grade 2” value ([3]; flumioxazin 60 g ai/ha (1×)) was 0 plant, the “The grade of pesticide damage/plant: grade 3” value ([3]; flumioxazin 60 g ai/ha (1×)) was 0 plant and the “The grade of pesticide damage/plant: grade 0” value ([3]; flumioxazin 240 g ai/ha (4×)) was 19 plant. The “The grade of pesticide damage/plant: grade 1” value ([3]; flumioxazin 240 g ai/ha (4×)) was 5 plant, the “The grade of pesticide damage/plant: grade 2” value ([3]; flumioxazin 240 g ai/ha (4×)) was 0 plant and the “The grade of pesticide damage/plant: grade 3” value ([3]; flumioxazin 240 g ai/ha (4×)) was 0 plant. For the same molecule, the “The grade of pesticide: grade 0” value ([4]; sulfentrazone 450 g ai/ha (1×)) was 24, the “The grade of pesticide: grade 1” value ([4]; sulfentrazone 450 g ai/ha (1×)) was 0 and the “The grade of pesticide: grade 2” value ([4]; sulfentrazone 450 g ai/ha (1×)) was 0. For the same molecule, the “The grade of pesticide: grade 3” value ([4]; sulfentrazone 450 g ai/ha (1×)) was 0, the “The grade of pesticide: grade 0” value ([4]; sulfentrazone 900 g ai/ha (2×)) was 19 and the “The grade of pesticide: grade 1” value ([4]; sulfentrazone 900 g ai/ha (2×)) was 5. For the same molecule, the “The grade of pesticide: grade 2” value ([4]; sulfentrazone 900 g ai/ha (2×)) was 0 and the “The grade of pesticide: grade 3” value ([4]; sulfentrazone 900 g ai/ha (2×)) was 0.

B2: PPO-ECA: nucleotide sequence encoding Escherichia coli protoporphyrinogen oxidase PPO-EC (SEQ ID NO:43), Arabidopsis thaliana/soybean common codon usage bias (nucleic acid)
DNA: ATGAAAACACTTATCTTGTTCTCAACTAGAGATGGACAGACAAGAGAGATTGCTTCTTACTTGGCTTCAGAACTTAAGGAGTTGGGTATTCAAGCTGATGTTGCTAATGTTCATAGAATTGAAGAGCCTCAGTGGGAAAACTATGATAGAGTTGTTATTGGAGCTTCTATTAGATATGGTCATTACCATTCAGCTTTTCAAGAGTTCGTTAAGAAACATGCTACTAGACTTAACTCTATGCCATCAGCTTTTTACTCTGTTAACTTGGTTGCTAGAAAGCCTGAGAAAAGAACTCCACAAACAAACTCTTACGCTAGAAAGTTCCTTATGAACTCACAGTGGAGACCTGATAGATGCGCTGTTATTGCTGGTGCTCTTAGATATCCAAGATACAGATGGTACGATAGATTCATGATCAAGTTGATTATGAAAATGTCTGGAGGTGAAACTGATACAAGAAAGGAGGTTGTTTACACAGATTGGGAACAGGTTGCTAATTTCGCTAGAGAGATTGCTCATCTTACTGATAAGCCAACATTGAAATGA
modifications: The nucleotide sequence of PPO-ECA
With B2 the “The grade of pesticide damage/plant: grade 0” value ([5]; saflufenacil 50 g ai/ha (2×)) was 9 plant, the “The grade of pesticide damage/plant: grade 1” value ([5]; saflufenacil 50 g ai/ha (2×)) was 7 plant and the “The grade of pesticide damage/plant: grade 2” value ([5]; saflufenacil 50 g ai/ha (2×)) was 0 plant. The “The grade of pesticide damage/plant: grade 3” value ([5]; saflufenacil 50 g ai/ha (2×)) was 0 plant, the “The grade of pesticide damage/plant: grade 0” value ([5]; saflufenacil 100 g ai/ha (4×)) was 8 plant and the “The grade of pesticide damage/plant: grade 1” value ([5]; saflufenacil 100 g ai/ha (4×)) was 3 plant. The “The grade of pesticide damage/plant: grade 2” value ([5]; saflufenacil 100 g ai/ha (4×)) was 5 plant, the “The grade of pesticide damage/plant: grade 3” value ([5]; saflufenacil 100 g ai/ha (4×)) was 0 plant and the tolerance to saflufenacil ([5]; soybean, saflufenacil, compared with the control vector and CK) was “different extents of tolerance”. For the same molecule, the “The grade of pesticide damage/plant: grade 0” value ([6]; oxyfluorfen 360 g ai/ha (2×)) was 16 plant, the “The grade of pesticide damage/plant: grade 1” value ([6]; oxyfluorfen 360 g ai/ha (2×)) was 0 plant and the “The grade of pesticide damage/plant: grade 2” value ([6]; oxyfluorfen 360 g ai/ha (2×)) was 0 plant. For the same molecule, the “The grade of pesticide damage/plant: grade 3” value ([6]; oxyfluorfen 360 g ai/ha (2×)) was 0 plant, the “The grade of pesticide damage/plant: grade 0” value ([6]; oxyfluorfen 720 g ai/ha (4×)) was 13 plant and the “The grade of pesticide damage/plant: grade 1” value ([6]; oxyfluorfen 720 g ai/ha (4×)) was 3 plant. For the same molecule, the “The grade of pesticide damage/plant: grade 2” value ([6]; oxyfluorfen 720 g ai/ha (4×)) was 0 plant, the “The grade of pesticide damage/plant: grade 3” value ([6]; oxyfluorfen 720 g ai/ha (4×)) was 0 plant and the tolerance to oxyfluorfen ([6]; oxyfluorfen at four-fold field concentration (720 g ai/ha)) was “high-resistant tolerance”. The tolerance to oxyfluorfen ([6]; oxyfluorfen at two-fold field concentration (360 g ai/ha)) was “high-resistant tolerance”, the “The grade of pesticide damage/plant: grade 0” value ([7]; flumioxazin 120 g ai/ha (2×)) was 16 plant and the “The grade of pesticide damage/plant: grade 1” value ([7]; flumioxazin 120 g ai/ha (2×)) was 0 plant. The “The grade of pesticide damage/plant: grade 2” value ([7]; flumioxazin 120 g ai/ha (2×)) was 0 plant, the “The grade of pesticide damage/plant: grade 3” value ([7]; flumioxazin 120 g ai/ha (2×)) was 0 plant and the “The grade of pesticide damage/plant: grade 0” value ([7]; flumioxazin 240 g ai/ha (4×)) was 15 plant. For the same molecule, the “The grade of pesticide damage/plant: grade 1” value ([7]; flumioxazin 240 g ai/ha (4×)) was 1 plant, the “The grade of pesticide damage/plant: grade 2” value ([7]; flumioxazin 240 g ai/ha (4×)) was 0 plant and the “The grade of pesticide damage/plant: grade 3” value ([7]; flumioxazin 240 g ai/ha (4×)) was 0 plant. For the same molecule, the tolerance to flumioxazin ([7]; soybean, flumioxazin at different concentrations (120 and 240 g ai/ha)) was “high-resistant tolerance”.
